Here are results for 9 molecules from patent US20200087380A1 (Chugai, published 2020).

Holding throughout (experiment): SPR (Biacore T100), antibody captured on Protein A/G chip, antigen as analyte, 25 C, 1:1 Langmuir fit
On the technique in general: SPR reads the build-up and loss of mass on a sensor chip optically.

The target in experiment [1] is T1, GPC3 (UniProt P51654 25-563, limits assumed).
T1 construct: also called glypican-3

The target in another experiment is T2, hIL6R (human, UniProt P08887 20-357, limits assumed).
T2 construct: Printed as hIL6R
T2 sequence (looked up): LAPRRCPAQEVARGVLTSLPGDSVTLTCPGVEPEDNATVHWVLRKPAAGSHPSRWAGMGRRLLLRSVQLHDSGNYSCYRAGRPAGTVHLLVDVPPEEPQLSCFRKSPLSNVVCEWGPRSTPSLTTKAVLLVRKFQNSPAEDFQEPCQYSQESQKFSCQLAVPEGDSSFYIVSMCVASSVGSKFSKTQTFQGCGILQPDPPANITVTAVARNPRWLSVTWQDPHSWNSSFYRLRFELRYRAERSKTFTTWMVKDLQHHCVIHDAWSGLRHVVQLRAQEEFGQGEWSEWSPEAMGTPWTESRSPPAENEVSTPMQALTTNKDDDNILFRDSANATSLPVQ

Experiment [2] concerns the target T1, GPC3. This is another data set of the same source.

Positions count from the first letter of the chain named. Numbers in names are those of the source. Where “and” joins values, the source holds several entries; their conditions need not be identical. Equal values may be shown once. Read-outs that look alike come from different tables or passages of the source.

As a reminder, the Kd is the constant that tells how readily two partners part at equilibrium. As a reminder, the koff is a measure of how fast the partners let go of each other. Read a high koff as fast dissociation. As usually defined, the kon is the second-order rate constant of association. A lower kon goes with slow association.

T1 sequence (P51654 25-563 limits assumed): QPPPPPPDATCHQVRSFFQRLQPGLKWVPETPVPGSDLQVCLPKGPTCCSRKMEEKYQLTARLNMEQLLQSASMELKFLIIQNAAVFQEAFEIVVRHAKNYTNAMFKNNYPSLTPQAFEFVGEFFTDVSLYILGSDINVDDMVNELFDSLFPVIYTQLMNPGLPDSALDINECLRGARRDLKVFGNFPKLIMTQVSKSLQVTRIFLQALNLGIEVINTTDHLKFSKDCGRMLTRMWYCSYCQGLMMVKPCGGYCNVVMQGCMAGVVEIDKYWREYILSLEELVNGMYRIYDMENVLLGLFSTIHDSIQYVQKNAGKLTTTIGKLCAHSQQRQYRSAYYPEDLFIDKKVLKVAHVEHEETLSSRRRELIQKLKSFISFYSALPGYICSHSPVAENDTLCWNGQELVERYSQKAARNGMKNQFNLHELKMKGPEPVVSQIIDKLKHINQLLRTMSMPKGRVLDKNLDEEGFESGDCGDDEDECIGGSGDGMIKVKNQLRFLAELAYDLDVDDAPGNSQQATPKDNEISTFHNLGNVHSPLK

B1: anti-GPC3 antibody with H chain constant region TH13 (K147E, Q175E) and L chain constant region TL16 (T180K, S131K, Q160K) (antibody, human IgG1, kappa)
heavy: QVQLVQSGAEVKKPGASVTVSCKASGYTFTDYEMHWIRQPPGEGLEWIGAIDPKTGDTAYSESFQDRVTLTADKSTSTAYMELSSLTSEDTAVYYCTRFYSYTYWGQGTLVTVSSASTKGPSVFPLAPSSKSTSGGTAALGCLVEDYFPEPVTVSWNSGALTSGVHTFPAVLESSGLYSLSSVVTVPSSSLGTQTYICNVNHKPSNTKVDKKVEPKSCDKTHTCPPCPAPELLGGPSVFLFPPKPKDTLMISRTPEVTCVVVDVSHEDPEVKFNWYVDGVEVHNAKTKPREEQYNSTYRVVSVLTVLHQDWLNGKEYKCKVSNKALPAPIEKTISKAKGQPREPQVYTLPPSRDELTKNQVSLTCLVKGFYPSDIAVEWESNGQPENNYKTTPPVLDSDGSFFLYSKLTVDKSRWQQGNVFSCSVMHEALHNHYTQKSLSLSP
light: DIVMTQSPLSLPVTPGEPASISCQASESLVHSNRNTYLHWYLQKPGQSPQLLIYKVSNRFSGVPDRFSGSGSGTDFTLKISRVEAEDVGVYYCSQNTHVPPTFGQGTKVEIERTVAAPSVFIFPPSDEQLKSGTAKVVCLLNNFYPREAKVQWKVDNALQSGNSKESVTEQDSKDSTYSLSSTLKLSKADYEKHKVYACEVTHQGLSSPVTKSFNRGEC
notes: IgG1/kappa; also called TH13/TL16
Regarding B1, in the experiment with GPC3 [1], the affinity, expressed as Kd, was 1.5 nM; the koff stood at 0.0004 s⁻¹; the kon was 270000 M⁻¹ s⁻¹.

B2: 4ch_001 (anti-IL6R MH0-G1d/ML0-k0 and anti-GPC3 GpH7-G1d/GpL16-k0, no CH1/CL or KiH modification) (bispecific antibody, human IgG1, kappa)
heavy 1: not shown
light 1: not shown
heavy 2: not shown
light 2: B1 light with K136S, K165Q, K185T
notes: Four chains co-expressed without pairing control
In the case of B2, in the experiment with hIL6R, the dissociation constant Kd is 2.6 nM and 2.8 nM; the koff stood at 0.00041 s⁻¹; the kon worked out at 150000 M⁻¹ s⁻¹. In addition, in the experiment with GPC3 [2], the Kd stood at 1.3 nM, the koff worked out at 0.00036 s⁻¹ and the kon stood at 270000 M⁻¹ s⁻¹.

B3: 4ch_004 (anti-IL6R MH0-TH2k/ML0-TL17 and anti-GPC3 GpH7-TH13h/GpL16-TL16; KiH + CH1/CL_1) (bispecific antibody, human IgG1, kappa)
heavy 1: not shown
light 1: not shown
heavy 2: not shown
light 2: B1 light
notes: IgG1/kappa bispecific with knob (k) and hole (h) H chains
In the experiment with hIL6R, B3 came in with a Kd of 2.8 nM, a koff of 0.00047 s⁻¹ and a kon of 170000 M⁻¹ s⁻¹. Also, in the experiment with GPC3 [2], the affinity, expressed as Kd, was 1.4 nM; the koff was found to be 0.00038 s⁻¹; the kon turned out to be 270000 M⁻¹ s⁻¹.

B4: 4ch_006 (anti-IL6R MH0-TH2k/ML0-TL17 and anti-GPC3 GpH7-TH15h/GpL16-TL19; KiH + CH1/CL_2) (bispecific antibody, human IgG1, kappa)
heavy 1: not shown
light 1: not shown
heavy 2: not shown
light 2: B1 light with E128K
notes: as for B3
As to B4, in the experiment with hIL6R, the dissociation constant Kd was 2.2 nM, the koff was 0.00043 s⁻¹ and the kon was determined as 200000 M⁻¹ s⁻¹. In addition, in the experiment with GPC3 [2], the Kd stood at 1.2 nM, the koff was determined as 0.00042 s⁻¹ and the kon is 340000 M⁻¹ s⁻¹.

B5: anti-GPC3 antibody with H chain constant region TH2 (Q175K) and L chain constant region TL17 (T180E, S131E, Q160E) (antibody, human IgG1, kappa)
heavy: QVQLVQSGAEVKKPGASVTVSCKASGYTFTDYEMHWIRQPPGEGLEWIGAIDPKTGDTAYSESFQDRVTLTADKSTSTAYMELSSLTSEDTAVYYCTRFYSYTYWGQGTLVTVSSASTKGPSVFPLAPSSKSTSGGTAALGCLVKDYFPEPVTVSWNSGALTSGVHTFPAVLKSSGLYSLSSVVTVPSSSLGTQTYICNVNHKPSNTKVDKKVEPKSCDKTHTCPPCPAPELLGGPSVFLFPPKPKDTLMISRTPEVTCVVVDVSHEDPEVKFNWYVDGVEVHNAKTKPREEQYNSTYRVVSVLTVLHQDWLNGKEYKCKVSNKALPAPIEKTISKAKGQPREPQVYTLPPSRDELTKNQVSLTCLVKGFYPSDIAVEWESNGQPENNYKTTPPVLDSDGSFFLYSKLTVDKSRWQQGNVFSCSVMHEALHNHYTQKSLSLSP
light: B1 light with K136E, K165E, K185E
notes: IgG1/kappa; also called TH2/TL17
As for B5, in the experiment with GPC3 [1], the Kd turned out to be 1.4 nM, the koff turned out to be 0.00039 s⁻¹ and the kon amounted to 280000 M⁻¹ s⁻¹.

B6: anti-GPC3 antibody with H chain constant region TH15 (K147E, Q175E, K213E) and L chain constant region TL19 (T180K, S131K, Q160K, E123K) (antibody, human IgG1, kappa)
heavy: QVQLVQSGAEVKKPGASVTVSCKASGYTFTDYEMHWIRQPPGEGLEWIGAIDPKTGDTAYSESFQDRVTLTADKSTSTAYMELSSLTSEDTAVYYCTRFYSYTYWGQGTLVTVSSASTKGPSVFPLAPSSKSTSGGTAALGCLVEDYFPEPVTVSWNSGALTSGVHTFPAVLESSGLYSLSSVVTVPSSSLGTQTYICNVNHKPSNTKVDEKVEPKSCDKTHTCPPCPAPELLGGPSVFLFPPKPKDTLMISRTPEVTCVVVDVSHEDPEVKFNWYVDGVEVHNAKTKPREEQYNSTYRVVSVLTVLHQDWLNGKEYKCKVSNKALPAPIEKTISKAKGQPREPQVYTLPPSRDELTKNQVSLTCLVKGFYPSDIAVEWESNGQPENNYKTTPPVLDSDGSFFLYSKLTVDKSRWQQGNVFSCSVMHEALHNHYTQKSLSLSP
light: B1 light with E128K
notes: IgG1/kappa; also called TH15/TL19
With B6, in the experiment with GPC3 [1], the affinity, expressed as Kd, was 0.99 nM; the dissociation rate constant (koff) was determined as 0.00038 s⁻¹; the kon was determined as 390000 M⁻¹ s⁻¹.

B7: anti-GPC3 antibody with H chain constant region G1d and L chain constant region k0 (GpH7-G1d / GpL16-k0) (antibody, human IgG1, kappa)
heavy: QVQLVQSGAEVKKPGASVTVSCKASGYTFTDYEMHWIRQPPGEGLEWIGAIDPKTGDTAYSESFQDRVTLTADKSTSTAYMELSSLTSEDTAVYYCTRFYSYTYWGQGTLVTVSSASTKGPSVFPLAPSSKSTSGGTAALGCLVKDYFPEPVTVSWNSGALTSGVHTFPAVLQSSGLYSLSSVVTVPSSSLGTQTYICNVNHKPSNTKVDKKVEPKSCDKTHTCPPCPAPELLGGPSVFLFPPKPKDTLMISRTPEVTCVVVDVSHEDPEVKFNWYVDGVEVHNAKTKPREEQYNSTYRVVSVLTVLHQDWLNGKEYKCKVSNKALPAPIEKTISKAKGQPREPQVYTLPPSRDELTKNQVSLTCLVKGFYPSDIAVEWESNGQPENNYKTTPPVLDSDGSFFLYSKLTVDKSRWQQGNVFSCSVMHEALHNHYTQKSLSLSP
light: B1 light with K136S, K165Q, K185T
notes: IgG1/kappa; also called G1d/k0; native G1d/k0
Regarding B7, in the experiment with GPC3 [1], the Kd worked out at 1.3 nM, the koff worked out at 0.00036 s⁻¹ and the kon is 270000 M⁻¹ s⁻¹.

B8: 4ch_010 (anti-IL6R MH0-TH15k/ML0-TL19 and anti-GPC3 GpH7-TH2h/GpL16-TL17; KiH + CH1/CL_2) (bispecific antibody, human IgG1, kappa)
heavy 1: not shown
light 1: not shown
heavy 2: not shown
light 2: B1 light with K136E, K165E, K185E
notes: as for B3
In the experiment with hIL6R, B8 returned a Kd of 2.4 nM, a koff of 0.00059 s⁻¹ and a kon of 240000 M⁻¹ s⁻¹. In the experiment with GPC3 [2], this molecule returned a Kd of 1.4 nM, a koff of 0.00041 s⁻¹ and a kon of 290000 M⁻¹ s⁻¹.

B9: 4ch_008 (anti-IL6R MH0-TH13k/ML0-TL16 and anti-GPC3 GpH7-TH2h/GpL16-TL17; KiH + CH1/CL_1) (bispecific antibody, human IgG1, kappa)
heavy 1: not shown
light 1: not shown
heavy 2: not shown
light 2: B1 light with K136E, K165E, K185E
notes: as for B3
In the experiment with hIL6R, B9 gave a Kd of 2.8 nM, a koff of 0.00046 s⁻¹ and a kon of 160000 M⁻¹ s⁻¹. In the experiment with GPC3 [2], this molecule registered a Kd of 1.5 nM, a koff of 0.00039 s⁻¹ and a kon of 260000 M⁻¹ s⁻¹.
